Target: GFP-SR-BI (scavenger receptor BI) on CHO cells (UniProt Q8WTV0)
Chain of UniProt Q8WTV0 (Q8WTV0 whole entry): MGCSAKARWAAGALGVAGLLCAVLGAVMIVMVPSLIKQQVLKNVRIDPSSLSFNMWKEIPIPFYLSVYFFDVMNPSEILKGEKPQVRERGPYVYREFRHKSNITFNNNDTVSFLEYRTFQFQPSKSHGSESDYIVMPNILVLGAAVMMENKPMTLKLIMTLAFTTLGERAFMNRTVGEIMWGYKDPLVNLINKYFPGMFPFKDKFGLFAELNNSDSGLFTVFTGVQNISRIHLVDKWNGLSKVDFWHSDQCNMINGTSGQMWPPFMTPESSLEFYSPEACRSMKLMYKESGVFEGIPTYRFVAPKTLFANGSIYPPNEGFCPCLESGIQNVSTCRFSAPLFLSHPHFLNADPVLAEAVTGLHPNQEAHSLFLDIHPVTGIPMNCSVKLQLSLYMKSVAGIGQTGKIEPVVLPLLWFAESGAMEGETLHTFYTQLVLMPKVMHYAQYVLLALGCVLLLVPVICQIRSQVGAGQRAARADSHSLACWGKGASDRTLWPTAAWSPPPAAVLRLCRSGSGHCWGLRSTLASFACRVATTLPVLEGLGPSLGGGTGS

Q: With “Alexa Fluor 568 labeled human high-density lipoprotein (from UniProt P02647 19-267) (complex)” as the substance, how does the AF568-HDL internalization by HCCMECs after pre-treatment with 10 ug/mL blocking anti-SR-BI scFv (percent decrease) read?
A: 57%
